Reference: patent US20250000991A1 (Eli Lilly, published 2025)

T1: human Nectin-4-eGFP on T24 cells (clone 3) (human, UniProt Q96NY8 32-510)
T1 sequence: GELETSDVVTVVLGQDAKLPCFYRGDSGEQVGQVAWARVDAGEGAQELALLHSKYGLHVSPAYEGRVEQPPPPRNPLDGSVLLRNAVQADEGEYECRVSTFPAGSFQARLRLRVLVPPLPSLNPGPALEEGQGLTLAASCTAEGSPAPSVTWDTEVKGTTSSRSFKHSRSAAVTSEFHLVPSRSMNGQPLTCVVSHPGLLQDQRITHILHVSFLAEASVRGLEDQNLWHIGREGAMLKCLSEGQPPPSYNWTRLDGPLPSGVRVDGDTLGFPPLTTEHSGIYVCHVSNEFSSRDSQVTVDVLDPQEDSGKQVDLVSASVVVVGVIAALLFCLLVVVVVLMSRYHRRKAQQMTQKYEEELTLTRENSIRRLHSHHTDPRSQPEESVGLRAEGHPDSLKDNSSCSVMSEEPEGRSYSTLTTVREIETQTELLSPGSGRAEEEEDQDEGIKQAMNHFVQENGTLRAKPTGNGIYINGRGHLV

T2: human nectin-4 on cells (human, UniProt Q96NY8 32-510)
T2 construct: also called Nectin-4 receptor
T2 sequence: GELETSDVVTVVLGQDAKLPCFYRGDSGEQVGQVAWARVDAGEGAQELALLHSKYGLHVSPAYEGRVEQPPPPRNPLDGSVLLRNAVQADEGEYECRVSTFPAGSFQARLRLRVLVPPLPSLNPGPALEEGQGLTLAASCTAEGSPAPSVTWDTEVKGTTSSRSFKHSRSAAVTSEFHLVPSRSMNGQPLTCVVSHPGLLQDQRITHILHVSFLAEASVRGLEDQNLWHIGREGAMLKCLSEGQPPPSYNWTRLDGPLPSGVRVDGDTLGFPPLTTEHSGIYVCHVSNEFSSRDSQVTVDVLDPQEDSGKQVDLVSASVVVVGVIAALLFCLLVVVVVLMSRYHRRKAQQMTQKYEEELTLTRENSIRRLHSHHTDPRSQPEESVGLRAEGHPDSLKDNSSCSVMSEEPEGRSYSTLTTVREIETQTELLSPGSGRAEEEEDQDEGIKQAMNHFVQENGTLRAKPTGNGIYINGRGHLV

T3: recombinant HIS-tagged human nectin-4 (Acro Biosystems Cat. No. NE4-H52H3) (human, UniProt Q96NY8 32-349)
T3 construct: Bought protein; not shown: HIS tag
T3 sequence: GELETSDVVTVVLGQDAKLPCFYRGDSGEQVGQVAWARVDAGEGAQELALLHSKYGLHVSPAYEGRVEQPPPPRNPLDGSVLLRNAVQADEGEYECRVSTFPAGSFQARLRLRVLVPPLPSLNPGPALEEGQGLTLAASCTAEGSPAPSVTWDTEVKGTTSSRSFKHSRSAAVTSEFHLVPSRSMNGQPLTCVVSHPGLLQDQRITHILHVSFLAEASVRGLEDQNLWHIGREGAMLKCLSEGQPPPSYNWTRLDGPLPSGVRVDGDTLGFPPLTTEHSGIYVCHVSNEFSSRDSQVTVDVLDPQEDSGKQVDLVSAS

T4: recombinant HIS-tagged rat nectin-4 (R&D Systems Cat. No. 9997-N4-050) (rat, UniProt D3ZET1 31-348)
T4 construct: Bought protein; HIS tag not described
T4 sequence: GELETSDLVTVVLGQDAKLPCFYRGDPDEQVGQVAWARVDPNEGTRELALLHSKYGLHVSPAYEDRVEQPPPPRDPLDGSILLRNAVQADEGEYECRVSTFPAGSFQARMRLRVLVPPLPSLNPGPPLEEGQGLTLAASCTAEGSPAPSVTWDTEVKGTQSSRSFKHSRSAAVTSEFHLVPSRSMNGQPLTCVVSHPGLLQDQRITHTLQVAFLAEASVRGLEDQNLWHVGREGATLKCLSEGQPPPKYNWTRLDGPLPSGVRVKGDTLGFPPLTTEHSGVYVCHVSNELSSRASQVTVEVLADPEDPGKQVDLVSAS


Experiments:
[1] = molecular target: T1, human Nectin-4-eGFP on T24 cells (clone …); assay: cell-based or functional assay
human nectin-4 on cells [2] = molecular target: T2, human nectin-4 on cells; assay: flow cytometry, NCI-H1781 cells (low endogenous nectin-4)
human nectin-4 on cells [3] = molecular target: T2, human nectin-4 on cells; assay: flow cytometry, SUM190PT cells (high endogenous nectin-4)
[4] = molecular target: T3, recombinant HIS-tagged human nectin-4 …; assay: SPR Biacore 8K+, ADC captured via anti-human Fc, nectin-4 analyte, 37 C;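 also: Nectin-4 injected over captured ADC at 0 to 600 nM for 2 min association, then 10 min dissociation, with a reference flow cell lacking ADC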
[5] = molecular target: T4, recombinant HIS-tagged rat nectin-4 …; assay: as above
human nectin-4 on cells [6] = molecular target: T2, human nectin-4 on cells; assay: cell-based or functional assay

Row | Binder | % activity (max GFP signal loss compared to enfortumab mAb (100%)) [1] | EC50 (nM) of nectin-4-eGFP signal loss [1] | % of enfortumab (Average Max MFI) (human nectin-4 on cells [2]) | Average Max MFI (human nectin-4 on cells [2]) | EC50 (human nectin-4 on cells [2]) | % of enfortumab (Average Max MFI) (human nectin-4 on cells [3]) | Average Max MFI (human nectin-4 on cells [3]) | EC50 (human nectin-4 on cells [3]) | Kd [4] | koff [4] | kon [4] | Kd [5] | koff [5] | kon [5] | Cytotoxicity IC50, NCI H1781 cells (human nectin-4 on cells [6]) | Cytotoxicity IC50, T24 Nectin-4 clone 108 cells (human nectin-4 on cells [6])
1 | Ab6 (antibody, human IgG1, lambda, L234A L235A, V domains shown, Unconjugated antibody; also called Antibody 6; nectin-4 antibody Ab6) VH: QVQLVQSGAEVKKPGASVKVSCKASGYTFTGYYMHWVRQAPGQGLEWMGIINPSGGSTTYAQKFQGRVTMTRDTSTSTVYMELSSLRSEDTAVYYCARGRLGTYFDYWGQGTLVTVSS VL: SYVLTQPPSVSVAPGQTARITCGGNNIGSKSVHWYQQKPGQAPVLVVYDDSDRPSGIPERFSGSNSGNTATLTISRVEAGDEADYYCQVWDRSSDQVVFGGGTKLTVLG | 65.1% | 41.4 nM | 93.8% | 85000 MFI | 0.03 nM | 127% | 1.3e+06 MFI | 0.17 nM | – | – | – | – | – | – | – | –
2 | Ab6 ADC (Ab6 conjugated as in Formula XI, DAR of 8) (antibody, human IgG1, lambda, L234A L235A, V domains shown, camptothecin analog linker-payload of Formula XI on cysteine thiols after full reduction, DAR of 8 per antibody; positions not given, Antibody-drug conjugate of Ab6; also called Ab6 (ADC column)) VH: QVQLVQSGAEVKKPGASVKVSCKASGYTFTGYYMHWVRQAPGQGLEWMGIINPSGGSTTYAQKFQGRVTMTRDTSTSTVYMELSSLRSEDTAVYYCARGRLGTYFDYWGQGTLVTVSS VL: SYVLTQPPSVSVAPGQTARITCGGNNIGSKSVHWYQQKPGQAPVLVVYDDSDRPSGIPERFSGSNSGNTATLTISRVEAGDEADYYCQVWDRSSDQVVFGGGTKLTVLG | 118% | 2.26 nM | – | – | – | – | – | – | 91.8 nM | 0.163 s⁻¹ | 1.78e+06 M⁻¹ s⁻¹ | 114 nM | 0.105 s⁻¹ | 925000 M⁻¹ s⁻¹ | 0.0608 nM | 0.0783 nM
3 | Ab7 (antibody, human IgG1, lambda, L234A L235A, V domains shown, Unconjugated antibody; also called Antibody 7; nectin-4 antibody Ab7) VH: QVQLVQSGAEVKKPGASVKVSCKASGYTFTNYYMHWVRQAPGQGLEWMGIINPSSGSASYAQKFQGRVTMTRDTSTSTVYMELSSLRSEDTAVYYCAREGVGRDILQAFDIWGQGTLVTVSS VL: QSVLTQPPSVSEAPRQRVTISCSGSSSNIGNNAVNWYQQLPGKAPKLLIYYDDLLPSGVSDRFSGSKSGTSASLAISGLQSEDEADYYCAAWDDSLNGHVFGGGTKLTVLG | 66.5% | 3.37 nM | 96% | 87000 MFI | 0.09 nM | 112% | 1.2e+06 MFI | 0.14 nM | – | – | – | – | – | – | – | –
4 | Ab8 (antibody, human IgG1, lambda, L234A L235A, V domains shown, Unconjugated antibody; also called Antibody 8; nectin-4 antibody Ab8) VH: QVQLVQSGAEVKKPGASVKVSCKASGYTFTSYYIHWVRQAPGQGLEWMGIINPISGRTSSAQKFQGRVTMTRDTSTSTVYMELSSLRSEDTAVYYCAKEGVGGELLRAFDIWGQGTLVTVSS VL: QSVLTQPPSVSEAPRQRVTISCSGSSSNIGNNAVNWYQQLPGKAPKLLIYYDDLLPSGVSDRFSGSKSGTSASLAISGLQSEDEADYYCAAWDDSLNGFVFGGGTKLTVLG | 53.7% | 3.68 nM | 99.6% | 90000 MFI | 0.1 nM | 81.9% | 8.7e+06 MFI | 0.11 nM | – | – | – | – | – | – | – | –
5 | Ab3 (antibody, human IgG1, kappa, L234A L235A, V domains shown, Unconjugated antibody; also called Antibody 3; nectin-4 antibody Ab3) VH: EVQLVESGGGLVKPGGSLRLSCAASGFNLNHYNMNWVRQAPGKGLEWVSSVSSGGGFRYYADSVRGRFTISRDNAKNSLYLQMNSLRAEDTAVYYCARGAVFHDAFDIWGQGTLVTVSS VL: DIQLTQSPSFLSASVGDRVTITCRASQDISSYLAWYQQKPGKAPKLLIYVASTLQSGVPSRFSGSGSGTEFTLTISSLQPEDFATYYCQQINSYPFTFGQGTKVEIKR | 64.4% | 1.3 nM | 105% | 96000 MFI | 0.1 nM | 112% | 1.2e+06 MFI | 0.23 nM | – | – | – | – | – | – | – | –
6 | Ab4 ADC (Ab4 conjugated as in Formula XI, DAR of 8) (antibody, human IgG1, kappa, L234A L235A, V domains shown, camptothecin analog linker-payload of Formula XI on cysteine thiols after full reduction, DAR of 8 per antibody; positions not given, Antibody-drug conjugate of Ab4; also called Ab4 (ADC column)) VH: QVQLQESGPGLVKPSETLSLTCTVSGGSISGYYWSWIRQPPGKGLEWIGYIYYSGSTNYNPSLKSRVTISVDTSKNQFSLKLSSVTAADTAVYYCARLGIFFDAFDIWGQGTLVTVSS VL: DIQLTQSPSFLSASVGDRVTITCRASQGISSYLAWYQQKPGKAPKLLIYAASTLQSGVPSRFSGSGSGTEFTLTISSLQPEDFATYYCQQFNSYPWTFGQGTKVEIKR | 143% | 2.1 nM | – | – | – | – | – | – | 204 nM | – | – | – | – | – | 0.311 nM | 0.115 nM
7 | Ab5 (antibody, human IgG1, kappa, L234A L235A, V domains shown, Unconjugated antibody; also called Antibody 5; nectin-4 antibody Ab5) VH: QVQLVQSGAEVKKPGASVKVSCKASGYTFTSYYVHWVRQAPGQGLEWMGIINPSIISTSYAQKFQARVTMTRDTSTSTVYMELSSLRSEDTAVYYCARGLNFDAFDIWGQGTLVTVSS VL: DIQLTQSPSFLSASVGDRVTITCRASQGISSYLAWYQQKPGKAPKLLIYAASTLQSGVPSRFSGSGSGTEFTLTISSLQPEDFATYYCQQLNNYPFTFGQGTKVEIKR | 40.1% | 2.69 nM | 102% | 93000 MFI | 0.08 nM | 145% | 1.5e+06 MFI | 0.31 nM | – | – | – | – | – | – | – | –
8 | Ab4 (antibody, human IgG1, kappa, L234A L235A, V domains shown, Unconjugated antibody; also called Antibody 4) VH: QVQLQESGPGLVKPSETLSLTCTVSGGSISGYYWSWIRQPPGKGLEWIGYIYYSGSTNYNPSLKSRVTISVDTSKNQFSLKLSSVTAADTAVYYCARLGIFFDAFDIWGQGTLVTVSS VL: DIQLTQSPSFLSASVGDRVTITCRASQGISSYLAWYQQKPGKAPKLLIYAASTLQSGVPSRFSGSGSGTEFTLTISSLQPEDFATYYCQQFNSYPWTFGQGTKVEIKR | 40.9% | 0.41 nM | 95.8% | 87000 MFI | 0.14 nM | 97.9% | 1e+06 MFI | 0.19 nM | – | – | – | – | – | – | – | –
9 | Ab1a (antibody, human IgG1, kappa, L234A L235A, V domains shown, Unconjugated antibody; also called nectin-4 antibody Ab1a) VH: QVQLVQSGAQVKKPGASVKVSCKASGYTFTGYYIHWVRQAPGQGLEWMGWINPNSGGTNYAQKFQGRVTMTRDTSISTAYMELSRLRSDDTAVYFCAREDWDFDYWGQGTLVTVSS VL: EIVLTQSPGTLSLSPGERATLSCRTSQSVSSSYLAWYQQKPGQAPRLLIYGASNRATDIPDRFSGSGSGTDFTLTINRLEPEDFAVYYCQQYGSSPITFGQGTRLEIKR | 145% | 2.54 nM | 84.5% | 77000 MFI | 0.2 nM | 55.6% | 590000 MFI | 0.12 nM | – | – | – | – | – | – | – | –
